The supplement of paper PMC10724198
± gives the standard deviation of the averaged measurements.

System: Saccharomyces cerevisiae
Test: protein stability index of tFT-peptide fusion (C-terminal peptide) (PSI (0-1 scale)); higher = more stable (slower turnover)
Conditions: genetic background: das1 deletion; temperature: 30 C
Experimental: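 MPS profiling in S. cerevisiae of the tFT-X12 degron library: putative degron peptides plus stable controls, 12 aa, fused to the C-terminus of a sfGFP-mCherry timer. Cells are FACS-sorted into 8 mCherry/sfGFP bins and deep-sequenced. PSI runs from 0 (unstable) to 1 (stable). Backgrounds are wild type, das1Δ and doa10Δ at 30 °C, and wild type, das1Δ, cdc34-1 and cdc53-1 at 37 °C; 2-3 technical replicates each.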
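Also: PSI is a weighted mean of sequencing reads over stability bins, variants kept only with over 10 reads, mCherry proximal and sfGFP distal, peptide attached via GGGS linker.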

Row | Sequence | protein stability index
1 | APLSPLLPPFLC | 0.661 ± 0.024
2 | APPPLFLIVLHL | 0.399 ± 0.036
3 | APTMAIIVVHVR | 0.22 ± 0.034
4 | ARKIGKVIPKLG | 0.634 ± 0.043
5 | ASLSSSRPPLLP | 0.658 ± 0.025
6 | ASLVGGVLLVVV | 0.346 ± 0.032
7 | AWPGRLWYFWLA | 0.637 ± 0.018
8 | AYCGGRNKCTTE | 0.644 ± 0.034
9 | AYVAPRRALMCS | 0.352 ± 0.031
10 | CEERVKSRLKQN | 0.653 ± 0.043
11 | CFCLFVFFISSC | 0.223 ± 0.033
12 | CFCSFQFVRLWV | 0.49 ± 0.028
13 | CFFFPCFSFRFL | 0.416 ± 0.024
14 | CFFICGVFVFLM | 0.257 ± 0.03
15 | CFFILSLMVVVI | 0.12 ± 0.029
16 | CFFLSFNVFRLF | 0.498 ± 0.034
17 | CFVISVLFFFVG | 0.288 ± 0.035
18 | CFVLVVCIPVMV | 0.198 ± 0.023
19 | CFVQVGGLVKIS | 0.61 ± 0.012
20 | CFVSFLHLLYFS | 0.35 ± 0.025

Row | Sequence | protein stability index
21 | CGFVCGLCLCRV | 0.364 ± 0.04
22 | CGFVFFVLVVFW | 0.12 ± 0.033
23 | CGQIAFLGIAVK | 0.317 ± 0.042
24 | CGWFVSVGWRLG | 0.514 ± 0.016
25 | CHFLLHYVFLLS | 0.306 ± 0.037
26 | CHPIPLARLAPT | 0.67 ± 0.046
27 | CKKATILRIKSM | 0.643 ± 0.014
28 | CLCYFLFYFLFV | 0.436 ± 0.033
29 | CLEHLVYCRLAS | 0.555 ± 0.015
30 | CLHFLTWVRICS | 0.409 ± 0.019
31 | CLNPCVRWDGHV | 0.651 ± 0.039
32 | CMAWLSVLKTLF | 0.63 ± 0.017
33 | CRQDWMCFVYLS | 0.145 ± 0.021
34 | CVFAYSPVALRC | 0.409 ± 0.024
35 | CVFGFACRVLVV | 0.281 ± 0.031
36 | CYKYTYVKNNMI | 0.642 ± 0.038
37 | CYRRCQAFLVLV | 0.334 ± 0.031
38 | DFVFFLVSVRFR | 0.177 ± 0.037
39 | DGSFCLLYMTIA | 0.429 ± 0.02
40 | DGYLFKGIWFFV | 0.617 ± 0.033

Row | Sequence | protein stability index
41 | DKVTLLRRCKQY | 0.634 ± 0.026
42 | DLRGLGRFRISH | 0.64 ± 0.031
43 | DLVGRETRMRLN | 0.633 ± 0.039
44 | DPTLLLYPLSPL | 0.654 ± 0.019
45 | DVVRWQRVRNYV | 0.632 ± 0.022
46 | EGGGGRFWVCVG | 0.631 ± 0.0097
47 | EKHRRYAITKFI | 0.659 ± 0.027
48 | EKKNQTAYNKTV | 0.644 ± 0.013
49 | EKTKTKRERKIN | 0.626 ± 0.045
50 | ELNERRKRLVTN | 0.6615 ± 0.0035
51 | ERNERKYKIKIT | 0.609 ± 0.042
52 | ESCFGMAIFCVT | 0.37 ± 0.03
53 | ESCIFLMWLTVL | 0.222 ± 0.032
54 | ESFIKFALYIVN | 0.435 ± 0.023
55 | EVVFHVFLVGLV | 0.292 ± 0.035
56 | FALPPSLLLLSA | 0.442 ± 0.027
57 | FCCLIGYIWYGW | 0.392 ± 0.041
58 | FCFLLLSWAFWV | 0.171 ± 0.03
59 | FCFVRGLLFLFF | 0.383 ± 0.035
60 | FCIYLCLSTSIT | 0.14 ± 0.036

Same assay, conditions: genetic background: das1 deletion; temperature: 37 C

Row | Sequence | protein stability index
61 | APLSPLLPPFLC | 0.74816 ± 0.00015
62 | APPPLFLIVLHL | 0.604 ± 0.028
63 | APTMAIIVVHVR | 0.3582 ± 0.0027
64 | ARKIGKVIPKLG | 0.737 ± 0.02
65 | ASLSSSRPPLLP | 0.7114 ± 0.0024
66 | ASLVGGVLLVVV | 0.535 ± 0.0056
67 | AWPGRLWYFWLA | 0.755 ± 0.011
68 | AYCGGRNKCTTE | 0.744 ± 0.013
69 | AYVAPRRALMCS | 0.517 ± 0.011
70 | CEERVKSRLKQN | 0.728 ± 0.014
71 | CFCLFVFFISSC | 0.459 ± 0.015
72 | CFCSFQFVRLWV | 0.6443 ± 0.0064
73 | CFFFPCFSFRFL | 0.528 ± 0.015
74 | CFFICGVFVFLM | 0.435 ± 0.014
75 | CFFILSLMVVVI | 0.229 ± 0.0071
76 | CFFLSFNVFRLF | 0.633 ± 0.022
77 | CFVISVLFFFVG | 0.467 ± 0.015
78 | CFVLVVCIPVMV | 0.3457 ± 0.0017
79 | CFVQVGGLVKIS | 0.731 ± 0.033
80 | CFVSFLHLLYFS | 0.4666 ± 8.3e-05

Row | Sequence | protein stability index
81 | CGFVCGLCLCRV | 0.605 ± 0.042
82 | CGFVFFVLVVFW | 0.229 ± 0.0079
83 | CGQIAFLGIAVK | 0.551 ± 0.024
84 | CGWFVSVGWRLG | 0.66 ± 0.0096
85 | CHFLLHYVFLLS | 0.523 ± 0.0055
86 | CHPIPLARLAPT | 0.7433 ± 0.0058
87 | CKKATILRIKSM | 0.691 ± 0.0021
88 | CLCYFLFYFLFV | 0.572 ± 0.0063
89 | CLEHLVYCRLAS | 0.6774 ± 0.0062
90 | CLHFLTWVRICS | 0.526 ± 0.011
91 | CLNPCVRWDGHV | 0.77 ± 0.0062
92 | CMAWLSVLKTLF | 0.756 ± 0.037
93 | CRQDWMCFVYLS | 0.187 ± 0.031
94 | CVFAYSPVALRC | 0.556 ± 0.0084
95 | CVFGFACRVLVV | 0.407 ± 0.0012
96 | CYKYTYVKNNMI | 0.753 ± 0.014
97 | CYRRCQAFLVLV | 0.449 ± 0.015
98 | DFVFFLVSVRFR | 0.32 ± 0.017
99 | DGSFCLLYMTIA | 0.615 ± 0.046
100 | DGYLFKGIWFFV | 0.738 ± 0.036

Row | Sequence | protein stability index
101 | DKVTLLRRCKQY | 0.701 ± 0.015
102 | DLRGLGRFRISH | 0.7181 ± 0.0055
103 | DLVGRETRMRLN | 0.7221 ± 0.0045
104 | DPTLLLYPLSPL | 0.748 ± 0.014
105 | DVVRWQRVRNYV | 0.737 ± 0.0088
106 | EGGGGRFWVCVG | 0.748 ± 0.014
107 | EKHRRYAITKFI | 0.732 ± 0.025
108 | EKKNQTAYNKTV | 0.707 ± 0.022
109 | EKTKTKRERKIN | 0.715 ± 0.036
110 | ELNERRKRLVTN | 0.718 ± 0.0088
111 | ERNERKYKIKIT | 0.715 ± 0.026
112 | ESCFGMAIFCVT | 0.5841 ± 0.0045
113 | ESCIFLMWLTVL | 0.379 ± 0.0044
114 | ESFIKFALYIVN | 0.621 ± 0.014
115 | EVVFHVFLVGLV | 0.512 ± 0.018
116 | FALPPSLLLLSA | 0.5917 ± 0.0017
117 | FCCLIGYIWYGW | 0.527 ± 0.013
118 | FCFLLLSWAFWV | 0.27279 ± 7.6e-05
119 | FCFVRGLLFLFF | 0.5423 ± 0.0025
120 | FCIYLCLSTSIT | 0.306 ± 0.025
